Literature values, collected in article PMC12283743.

Test system: H. pylori surface recombinant antigen (not named) (Helicobacter pylori)
Conditions: target of the Kd cut off in the material (recombinant antigen or cells); Sensor only: bacteria incubated 40 min on the aptamer electrode, detection in PBS pH 7.0 (0.1 M for CV), room temperature; conditions of the cited Kd not given

In the case of “AGTGTGCTCTTCTCAGGTCTCGGCGCGGTTGTGGGTACCTAGGGTTGTTGTTGCTTCTCAGCAGTGTCTCAGCATACGCA [H. pylori aptamer]”, the Kd is given as 26 nM.
